Several values for one entry are separate records, joined by “and”; a condition that tells them apart may be missing. Equal entries are not always repeated.
Molecular target: recombinant L. infantum GDP-mannose pyrophosphorylase (LiGDP-MP) (Leishmania infantum)
Assay: SEC; Superdex 200 10/300 GL, 50 mM Tris-HCl pH 7.5, 1 M NaCl, 1 mM DTT, 10% glycerol; concentrated Ni-NTA fractions loaded; sizes estimated from elution volumes against standard proteins

- stoichiometry N: 6 and 3
Substance: recombinant L. infantum GDP-mannose pyrophosphorylase (LiGDP-MP) (enzyme)

Source: publication PMC8877407
